B1: Catenin beta-1 (Homo sapiens), P35222 (parent)
chain: MATQADLMELDMAMEPDRKAAVSHWQQQSYLDSGIHSGATTTAPSLSGKGNPEEEDVDTSQVLYEWEQGFSQSFTQEQVADIDGQYAMTRAQRVRAAMFPETLDEGMQIPSTQFDAAHPTNVQRLAEPSQMLKHAVVNLINYQDDAELATRAIPELTKLLNDEDQVVVNKAAVMVHQLSKKEASRHAIMRSPQMVSAIVRTMQNTNDVETARCTAGTLHNLSHHREGLLAIFKSGGIPALVKMLGSPVDSVLFYAITTLHNLLLHQEGAKMAVRLAGGLQKMVALLNKTNVKFLAITTDCLQILAYGNQESKLIILASGGPQALVNIMRTYTYEKLLWTTSRVLKVLSVCSSNKPAIVEAGGMQALGLHLTDPSQRLVQNCLWTLRNLSDAATKQEGMEGLLGTLVQLLGSDDINVVTCAAGILSNLTCNNYKNKMMVCQVGGIEALVRTVLRAGDREDITEPAICALRHLTSRHQEAEMAQNAVRLHYGLPVVVKLLHPPSHWPLIKATVGLIRNLALCPANHAPLREQGAIPRLVQLLVRAHQDTQRRTSMGGTQQQFVEGVRMEEIVEGCTGALHILARDVHNRIVIRGLNTIPLFVQLLYSPIENIQRVAAGVLCELAQDKEAAEAIEAEGATAPLTELLHSRNEGVATYAAAVLFRMSEDKPQDYKKRLSVELTSSLFRTEPMAWNETADLGLDIGAQGEPLGYRQDDPSYRSFHSGGYGQDALGMDPMMEHEMGGHHPGADYPVDGLPDLGHAQDLMDGLPPGDSNQLAWFDTDL

Variants of: B1
Conditions: with andr_human AR

| Variant | effect of a mutation on the interaction |
| --- | --- |
| Y306A | disrupting interaction strength |
| K345A | disrupting interaction strength |

The next lines start with the values.

| effect of a mutation on the interaction | Variant |
| --- | --- |
| disrupting interaction strength | Y306A;K345A;W383A |
| disrupting interaction strength | W383A |

Variants of: B1
Conditions: with NR5A2, O00482-1
NR5A2, O00482-1, sequence (O00482 whole entry): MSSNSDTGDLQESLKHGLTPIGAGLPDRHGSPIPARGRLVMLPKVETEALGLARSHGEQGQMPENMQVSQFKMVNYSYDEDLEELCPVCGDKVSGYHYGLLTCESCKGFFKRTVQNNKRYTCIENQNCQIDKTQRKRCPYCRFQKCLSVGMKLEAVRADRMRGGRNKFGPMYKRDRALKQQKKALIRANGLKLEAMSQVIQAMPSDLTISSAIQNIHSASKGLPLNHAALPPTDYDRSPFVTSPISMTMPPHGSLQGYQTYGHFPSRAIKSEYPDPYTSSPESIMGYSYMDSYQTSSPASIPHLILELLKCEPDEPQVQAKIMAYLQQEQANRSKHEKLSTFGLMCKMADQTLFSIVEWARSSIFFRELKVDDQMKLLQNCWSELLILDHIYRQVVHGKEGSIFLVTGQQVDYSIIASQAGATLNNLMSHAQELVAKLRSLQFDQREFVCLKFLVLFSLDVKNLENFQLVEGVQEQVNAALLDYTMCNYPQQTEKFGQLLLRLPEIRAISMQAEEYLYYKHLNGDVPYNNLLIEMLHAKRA

| effect of a mutation on the interaction | Variant |
| --- | --- |
| disrupting interaction strength | Y306A;K345A;W383A |

Source: IntAct's records for PubMed 22187462
